Test results as given in publication PMC4840014, “The G-quadruplex-forming aptamer AS1411 potently inhibits HIV-1 attachment to the host cell”.

Legend:
[1] = molecular target: gp120 envelope glycoprotein (HIV-1 IIIB, UniProt P04578 33-511); test: SPR; HEPES-KCl; up to 1000 nM; SPR (Biacore T100, CM5 chip), HEPES-KCl buffer (composition, pH and temperature not given), oligos 15.6-1000 nM, heated 95 C 5 min and cooled to room temperature, 20 uL/min, 120 s contact and dissociation, 1 M KCl regeneration; conditions: protein: recombinant
nucleolin (NCL) = nucleolin (NCL) (human (human recombinant protein), UniProt P19338 1-710); test: SPR; HEPES-KCl; SPR (Biacore T100, CM5 chip), HEPES-KCl buffer (composition, pH and temperature not given), oligos 15.6-1000 nM, heated 95 C 5 min and cooled to room temperature, 20 uL/min, 120 s contact and dissociation, 1 M KCl regeneration
Sequence of nucleolin (NCL) (P19338 whole entry): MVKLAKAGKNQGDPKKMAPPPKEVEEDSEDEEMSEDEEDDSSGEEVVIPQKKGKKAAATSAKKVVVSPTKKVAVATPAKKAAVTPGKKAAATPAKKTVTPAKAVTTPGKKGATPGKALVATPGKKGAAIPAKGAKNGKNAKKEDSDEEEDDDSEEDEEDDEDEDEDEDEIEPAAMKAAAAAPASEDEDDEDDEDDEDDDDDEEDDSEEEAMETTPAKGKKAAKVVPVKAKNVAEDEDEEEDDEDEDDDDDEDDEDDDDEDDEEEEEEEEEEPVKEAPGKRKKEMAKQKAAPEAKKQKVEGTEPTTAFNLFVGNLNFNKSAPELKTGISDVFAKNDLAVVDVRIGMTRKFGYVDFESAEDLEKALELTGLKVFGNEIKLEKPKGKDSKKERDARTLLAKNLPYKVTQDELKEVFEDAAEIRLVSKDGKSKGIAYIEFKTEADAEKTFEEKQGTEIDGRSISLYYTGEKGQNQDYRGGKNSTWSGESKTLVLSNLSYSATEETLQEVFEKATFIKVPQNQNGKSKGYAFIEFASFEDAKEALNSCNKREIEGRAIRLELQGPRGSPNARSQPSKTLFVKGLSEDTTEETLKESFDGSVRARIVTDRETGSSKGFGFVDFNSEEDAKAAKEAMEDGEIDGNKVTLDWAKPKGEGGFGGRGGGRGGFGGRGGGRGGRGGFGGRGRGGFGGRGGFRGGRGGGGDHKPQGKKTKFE

B1: SCRA (ssDNA)
DNA: TTTTTGGAGCGTGTGTGCGCGAGAGCGTGCGCGTGGCGAGCGTGGAGTGGTTTTT
- binding result ([1]; G-rich, non-G4): no binding

Binder: CCTCCTCCTCCTTCTCCTCCTCCTCC (ssDNA) [CRO26]
- binding result ([1]; C-rich, negative control): no binding

Binder: GGGAGGCGTGGCCTGGGCGGGACTGGGG (structured_DNA) [LTR-III]
- Kd (nucleolin (NCL); G4): 76.3 nM

Binder: GGTGGTGGTGGTTGTGGTGGTGGTGG (structured_DNA) [AS1411]
- Kd (nucleolin (NCL); G4, described as dimeric): 34.2 nM
